According to publication PMC11260452, “Cooperative Gsx2–DNA binding requires DNA bending and a novel Gsx2 homeodomain interface”:
Positions count from the first letter of the chain named.

Columns and labels:
Gsx2 167-305 [1] = biological target: T1, Gsx2 167-305 (Mus musculus, UniProt P31316 167-305); test: ITC; K 1.3 ± 0.6 x10^7 M-1; N 0.85; ITC: 50 mM sodium phosphate pH 6.5, 150 mM NaCl, 20 C; EMSA: 35 nM probe, 15 min room temperature, buffer as in cited ref 31; settings: protein: recombinant; tags: N-terminal His-tag, cleaved with PreScission; chain copies: 2; 5' overhang 1 nt on each strand
T1 sequence (P31316 167-305): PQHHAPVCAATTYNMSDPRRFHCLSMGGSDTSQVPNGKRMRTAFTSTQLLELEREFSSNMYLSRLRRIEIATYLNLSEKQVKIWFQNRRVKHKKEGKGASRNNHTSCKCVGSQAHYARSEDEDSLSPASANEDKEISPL

Gsx1HD [2] = biological target: T2, Gsx1HD (Mus musculus, UniProt P31315 146-207); test: ITC; K 5.5 ± 0.8 x10^7 M-1; N 0.96; ITC: 50 mM sodium phosphate pH 6.5, 150 mM NaCl, 20 C; EMSA: 35 nM probe, 15 min room temperature, buffer as in cited ref 31; settings: protein: recombinant; 5' overhang 1 nt on each strand
T2 sequence (P31315 146-207): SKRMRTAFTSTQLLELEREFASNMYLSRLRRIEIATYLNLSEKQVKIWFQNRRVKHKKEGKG

Gsx2HD [3] = biological target: T3, Gsx2HD (Mus musculus, UniProt P31316 203-264); test: ITC; K 6.8 ± 4.2 x10^7 M-1; N 1.02; ITC: 50 mM sodium phosphate pH 6.5, 150 mM NaCl, 20 C; EMSA: 35 nM probe, 15 min room temperature, buffer as in cited ref 31; settings: protein: recombinant; tags: N-terminal His-tag, cleaved with PreScission; chain copies: 2; 5' overhang 1 nt on each strand
T3 sequence (P31316 203-264): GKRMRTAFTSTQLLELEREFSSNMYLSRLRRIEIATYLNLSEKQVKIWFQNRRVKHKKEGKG

Gsx2HD I234E = Gsx2HD I234E (Mus musculus, UniProt P31316 203-264, I234E); test: ITC; K 5.1 ± 4.2 x10^7 M-1; N 1.05; Fig S6 isotherm 14.7 nM; ITC: 50 mM sodium phosphate pH 6.5, 150 mM NaCl, 20 C; EMSA: 35 nM probe, 15 min room temperature, buffer as in cited ref 31; settings: protein: recombinant; tags: N-terminal His-tag, cleaved with PreScission; 5' overhang 1 nt on each strand
Gsx2HD I234E, sequence (P31316 203-264 I234E): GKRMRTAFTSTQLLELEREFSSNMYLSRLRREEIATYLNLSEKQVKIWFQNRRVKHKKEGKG

Gsx2 167-305 [4] = biological target: T1, Gsx2 167-305; test: ITC; K 0.7 ± 0.2 x10^7 M-1; N 0.94; ITC: 50 mM sodium phosphate pH 6.5, 150 mM NaCl, 20 C; EMSA: 35 nM probe, 15 min room temperature, buffer as in cited ref 31; settings: protein: recombinant; tags: N-terminal His-tag, cleaved with PreScission; chain copies: 2; 5' overhang 1 nt on each strand
Gsx1HD [5] = biological target: T2, Gsx1HD; test: ITC; K 2.4 ± 0.9 x10^7 M-1; N 0.97; ITC: 50 mM sodium phosphate pH 6.5, 150 mM NaCl, 20 C; EMSA: 35 nM probe, 15 min room temperature, buffer as in cited ref 31; settings: protein: recombinant; 5' overhang 1 nt on each strand
Gsx2HD [6] = biological target: T3, Gsx2HD; test: ITC; K 2.8 ± 1.4 x10^7 M-1; N 0.98; ITC: 50 mM sodium phosphate pH 6.5, 150 mM NaCl, 20 C; EMSA: 35 nM probe, 15 min room temperature, buffer as in cited ref 31; settings: protein: recombinant; tags: N-terminal His-tag, cleaved with PreScission; chain copies: 2; 5' overhang 1 nt on each strand
Gsx2HD L216E [7] = biological target: T4, Gsx2HD L216E (Mus musculus, UniProt P31316 203-264, L216E); test: EMSA; binds equally to WT; little to no cooperativity; ITC: 50 mM sodium phosphate pH 6.5, 150 mM NaCl, 20 C; EMSA: 35 nM probe, 15 min room temperature, buffer as in cited ref 31; settings: protein: recombinant; tags: N-terminal His-tag, cleaved with PreScission; label: 5' IRDye700 on complementary strand (linker S14); blunt
T4 sequence (P31316 203-264 L216E): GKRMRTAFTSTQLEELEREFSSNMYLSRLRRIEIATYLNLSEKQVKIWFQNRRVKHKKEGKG

Gsx2HD L231E [8] = biological target: T5, Gsx2HD L231E (Mus musculus, UniProt P31316 203-264, L231E); test: as above; settings: protein: recombinant; tags: N-terminal His-tag, cleaved with PreScission; label: 5' IRDye700 on complementary strand (linker S14); blunt
T5 sequence (P31316 203-264 L231E): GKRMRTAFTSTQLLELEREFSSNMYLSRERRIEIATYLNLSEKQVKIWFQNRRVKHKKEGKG

Gsx2HD S212E [9] = biological target: T6, Gsx2HD S212E (Mus musculus, UniProt P31316 203-264, S212E); test: as above; settings: protein: recombinant; tags: N-terminal His-tag, cleaved with PreScission; label: 5' IRDye700 on complementary strand (linker S14); blunt
T6 sequence (P31316 203-264 S212E): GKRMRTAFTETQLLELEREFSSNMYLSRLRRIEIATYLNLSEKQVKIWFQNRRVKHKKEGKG

Gsx2 167-305 [10] = biological target: T1, Gsx2 167-305; test: EMSA; similar free probe depletion, lower cooperativity; ITC: 50 mM sodium phosphate pH 6.5, 150 mM NaCl, 20 C; EMSA: 35 nM probe, 15 min room temperature, buffer as in cited ref 31; settings: protein: recombinant; tags: N-terminal His-tag, cleaved with PreScission; chain copies: 2; label: 5' IRDye700 on complementary strand (linker S14); blunt
Gsx2HD L216E [11] = biological target: T4, Gsx2HD L216E; test: EMSA; binds; reduced cooperativity; ITC: 50 mM sodium phosphate pH 6.5, 150 mM NaCl, 20 C; EMSA: 35 nM probe, 15 min room temperature, buffer as in cited ref 31; settings: protein: recombinant; tags: N-terminal His-tag, cleaved with PreScission; label: 5' IRDye700 on complementary strand (linker S14); blunt
Gsx2HD L231E [12] = biological target: T5, Gsx2HD L231E; test: as above; settings: protein: recombinant; tags: N-terminal His-tag, cleaved with PreScission; label: 5' IRDye700 on complementary strand (linker S14); blunt
Gsx2HD S212E [13] = biological target: T6, Gsx2HD S212E; test: as above; settings: protein: recombinant; tags: N-terminal His-tag, cleaved with PreScission; label: 5' IRDye700 on complementary strand (linker S14); blunt

B1: TAATTA consensus 15-mer (dsDNA)
DNA 1: TGAGCTAATTAAAGC
DNA 2: AGCTTTAATTAGCTC
With B1 the Kd (Gsx2 167-305 [1]) was 77 nM, the Kd (Gsx1HD [2]) was 18 nM and the Kd (Gsx2HD [3]) was 15 nM. It also gave a Kd (Gsx2HD I234E) of 20 nM.

B2: TAATGG 15-mer (Common Q50 site) (dsDNA)
DNA 1: TGAGCTAATGGAAGC
DNA 2: AGCTTCCATTAGCTC
Binder B2 has a Kd (Gsx2 167-305 [4]) of 143 nM, a Kd (Gsx1HD [5]) of 42 nM and a Kd (Gsx2HD [6]) of 36 nM.

B3: 8bpS dimer probe (dsDNA)
DNA 1: TCCAACTAATTAAAGATTTAATTCGTAGTGCGGGCGTGGCT
DNA 2: AGCCACGCCCGCACTACGAATTAAATCTTTAATTAGTTGGA
B3: binds (Gsx2HD L216E [7]); binds (Gsx2HD L231E [8]); binds (Gsx2HD S212E [9]).

B4: GCGGG spacer dimer probe (dsDNA)
DNA 1: TCCAACTAATTAGCGGGTAATTCGTAGTGCGGGCGTGGCT
DNA 2: AGCCACGCCCGCACTACGAATTACCCGCTAATTAGTTGGA
For B4, the “cooperativity factor (tau)” value (Gsx2 167-305 [10]) was 12.6 tau cooperativity factor (mean of 3 G/C spacer probes).

B5: GCCGG spacer dimer probe (dsDNA)
DNA 1: B4 DNA 1 with G15C
DNA 2: B4 DNA 2 with C26G
With B5 the “cooperativity factor (tau)” value (Gsx2 167-305 [10]) was 12.6 tau cooperativity factor (mean of 3 G/C spacer probes).

B6: 7bpS / AAATT spacer dimer probe (dsDNA)
DNA 1: B4 DNA 1 with G13A, C14A, G15A, G16T, G17T
DNA 2: B4 DNA 2 with C24A, C25A, C26T, G27T, C28T
B6: binds (Gsx2HD L216E [11]); binds (Gsx2HD L231E [12]); binds (Gsx2HD S212E [13]).

B7: GGGCC spacer dimer probe (dsDNA)
DNA 1: B4 DNA 1 with C14G, G16C, G17C
DNA 2: B4 DNA 2 with C24G, C25G, G27C
For B7, the “cooperativity factor (tau)” value (Gsx2 167-305 [10]) was 12.6 tau cooperativity factor (mean of 3 G/C spacer probes).
